# Test results taken from the RNAGym collection of RNA variant scans (doi:10.1073/pnas.2313332121).
# B1: TPR t1 (parent)
# chain: GACCAAUCUGCCCUCAGAGCUCGAGAACAUCUUCGGAUGCAGAGGAGGCAGGCUUCGGUGGCGCGAUAGCGCCAACGUCCUCAACCUCCAAUGCAUCCCACCACAUGAUGAUGCCUGAAGAGCCUUGGUUUUUUG
# Variants of: B1
# Test: polymerase ribozyme fitness, log enrichment relative to wild type (log ratio); higher = more active; in vitro selection for triplet polymerase activity
# How it was run: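 Libraries of mutants in each subunit of a heterodimeric triplet polymerase ribozyme were generated by PCR and transcribed. In triplicate, each went through one in vitro selection round: annealing with biotinylated primer, partner subunit and triplets; frozen incubation at −7 °C; gel excision of extended constructs; streptavidin-bead capture; RT-PCR. Fitness, taken from Illumina sequencing of input and output libraries, is the logarithm of a genotype's enrichment over wild-type enrichment, averaged across replicates with inverse-variance weights. The logarithm is base 2, and genotypes needed ≥10 input reads and ≥1 read per output to be kept.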
row,Variant,polymerase ribozyme fitness (log ratio)
1,C56G C72U,-1.05
2,C56G C72G,-2.27
3,C56G C72A G110U A111G,-2.87
4,C56A C64U C114A,-2.59
5,C56A C70A G77C,-3.23
6,U55G G71A,-1.19
7,C56A A105G A111C G113A,-5.31
8,U55G U96A C115U,-2.35
9,C56A G77C C124A,1.47
10,C56A C79G U87A,-1.58
11,U55G G61C,-1.85
12,C56A G69U A108G U112C G117A U134C,-3.02
13,C56A C124A,1.04
14,C56A G71U C85U C102A C124U,-4.27
15,C56G C79A,-1.17
16,C56A U59G,-1.14
17,C56A G71U U81G A111C A119G G135A,-4.66
18,C56A C72U C104A C124U,-0.00796
19,C56A G69A A84G A121C,-3.85
20,C56A U112A C114A U116G,-6.59
21,C56A C114A,-1.74
22,C56A C114U,-2.03
23,C56A A66U G71C G120U,-7.24
24,C56G A74U G110A U116G C124G G135U,-5.19

row,Variant,polymerase ribozyme fitness (log ratio)
1,C56A C101U U106C A111C,-0.932
2,U55G G71A C101A,-1.24
3,C56A C99U A121C,-2.01
4,C56A G117A U125G G128C,-4.73
5,C56A G69A G117U,-6.41
6,U55G U109A,-5.03
7,U55G G69C,-1.57
8,U55G G69A,-1.67
9,C56A U87A U92A G120A A121U U131A,-4.2
10,C56A G63A C89U,-3.22
11,C56A A84C,-1.1
12,C56A U78C G93A C123U,1.38
13,C56A U81A C102A,-3.37
14,C56A C73U,0.483
15,C56A C73A,-0.651
16,C56G A90G G127C,-2.21
17,C56A A95C U106A C124U,0.424
18,C56A C104U G117A,-1.3
19,C56A C114A G135A,-2.55
20,C56A G135U,-1.7
21,C56G C62U A105U U129C,-3.68
22,C56G C79G C124U,-0.0923
23,C56A G69U U78A A90C C97A A118U,-4.65
24,C56A A95C C102A,-3.39

row,Variant,polymerase ribozyme fitness (log ratio)
1,C56G A90U U92G C97U,-2.65
2,C56A C82U,-0.413
3,C56A C94A,-1.2
4,C56A G63A U78C,-4.18
5,C56G C70G,-3.88
6,C56G C70A,-3.64
7,C56G C79A A83U A90C C114A,-7.42
8,C56A C62G C88U,-3.82
9,C56A C72G U78C,-1.29
10,C56A C62U C85U,-1.64
11,C56A G110C,-2.63
12,C56A G110A,-0.447
13,C56A C73U C124U,1.55
14,C56A C72G U106A,-1.22
15,C56A C64A G93A C104A U109G A111C,-5.87
16,C56A G69U C88G C115U,-1.62
17,C56A G61A,-1.51
18,C56A A111C,-0.279
19,C56A A111U,-3.34
20,C56A G117A,-2.11
21,C56A G117U,-2.01
22,C56A G117C,-3.44
23,C56G A66G C88U C115A,-1.71
24,C56A C82A C88U,-0.846

row,Variant,polymerase ribozyme fitness (log ratio)
1,U55G G113C,-0.955
2,C56A C88U,-0.627
3,C56A C88A,-0.627
4,C56G A83U C115U,-2.71
5,C56G C70U C88U U106A U133A,-1.55
6,C56A C86A G120C,0.246
7,C56A U92G C101G A121G,-4.49
8,C56A G69U,-0.137
9,C56A G69C,-3.89
10,C56A C79U U87A,-0.983
11,C56G A74G,-1.5
12,C56A G69A U133C,-2.92
13,C56G A68U,-6.1
14,C56G A84G,-1.43
15,C56A C73A C124G U125C U126A,-2.94
16,C56A G60U G113A,-1.2
17,C56A A121C,0.751
18,C56A C64U C115A U126C,-2.05
19,C56A U78G,-0.153
20,C56A G63A,-2.26
21,C56A G63U,-4.97
22,C56A U129A,-1.22
23,C56A U129C,-0.603
24,C56A C94G C101A U116G,-4.75

row,Variant,polymerase ribozyme fitness (log ratio)
1,C56G A91C G117C A119G,-1.73
2,U55G U81A A119U,-1.33
3,C56A G93U U112A U116G,-3.29
4,C56A U130C,-0.155
5,C56A C73U C88U U126G,-3.16
6,C56A C102U,-1.54
7,C56G C79U U92A,-3.45
8,C56A C79U U109A C123G,-6.51
9,C56A A108G G117U,-3.81
10,C56A C62A U78C C79U,-4.08
11,C56A C79G,-0.642
12,C56G A66U C88U C115A,-1.49
13,C56G A66U,-1.02
14,C56A C98U,-1.91
15,C56A C98A,-5.59
16,C56A C80U C102A C124U,-2.1
17,C56A U109A,-5.84
18,C56A U109C,-3.16
19,C56A U109G,-4.29
20,C56G C70U U96A U132A,-3.39
21,C56A C72A C76U U116G,-3.97
22,C56G C79A C115A U131A,-0.673
23,C56A C72G G77C C98U G128A,-3.6
24,C56A G128U U129G,-0.991

row,Variant,polymerase ribozyme fitness (log ratio)
1,U55G G60A C89A C114A,-2.87
2,C56A C123U,1.2
3,C56A G77C C98U G128A,-3.89
4,C56G C70U C88U U106A,-2.44
5,C56A C70A,-2.72
6,C56G A84G C114U,-4.61
7,C56A A95C U106A G128A,-3.3
8,C56A C80U,-1.23
9,C56A C80G,-2.82
10,C56A C82U C104U G122A U125A,-1.2
11,C56A C70U C80U G120C C123G,-1.95
12,C56A U125G,-1.39
13,C56G C72A C79U G117U,-4.93
14,C56A C82A C97U U129G,-2.1
15,C56G A95G A111U,-2.63
16,C56A A105C,-3.61
17,C56A G120C A121U U131A,-0.425
18,C56A G71U C82U,-1.78
19,C56A G77U,-0.278
20,C56A G77C,-0.0761
21,C56G C64U C79A,-1.17
22,C56A A74C C98U,-0.178
23,C56G C72A C79U,-1.41
24,C56A G69U C79U A100U A103C,-3.37

row,Variant,polymerase ribozyme fitness (log ratio)
1,C56G A90C A121G,1.01
2,C56A U116A,-3.29
3,C56A U116C,-0.712
4,C56A A84G C104U G120A,-1.12
5,C56G A91C C123A,0.632
6,C56A C62G,-3.98
7,C56A C62U,-0.164
8,C56A C97G,-4.2
9,C56G C85A,-2.26
10,C56G C85U,-0.934
11,C56A U81A A83C,-2.85
12,C56G A111U,-2.49
13,C56A C64U G120C,-2.77
14,C56A U112C,-0.107
15,U55G U87A C98G U109G A121C,-6.47
16,C56G C72G C82A C114U,-4.76
17,C56A C76A,-0.802
18,C56A A83G U129G,-2.3
19,C56A U78G C86A G120U,-0.426
20,C56A C85G U92C,-4.74
21,C56A A84U C94A C114A,-3.7
22,C56A C82G A91C G93C,-3.53
23,U55G U132C,-0.153
